This assay concerns the target recombinant SARS-CoV-2 envelope (E) protein, His-tagged (SARS-CoV-2) (UniProt P0DTC4). Put plainly: SPR; Biacore 8K, 25 °C, PBS-P buffer; His-tagged E protein captured on NTA chip; recombinant human CD36 injected at 400 nM to 12.5 nM, parallel kinetics; 1:1 binding model. On the technique in general: In SPR one partner is held on a chip, and binding of the other changes the refractive index at the surface.

“recombinant human CD36 protein (from UniProt P16671 1-472) (receptor)”: the Kd came to 55 nM.

Usually Kd stands for a measure of binding affinity in units of concentration.

These data come from paper PMC10442425.
